What was measured:
[1] = molecular target: mf CTLA-4 extracellular domain (aa 1-161) fused to the trans-membrane and cytoplasmic domain of hCD300a (aa 181-299), on Jurkat/NFAT-Luc cells (Macaca fascicularis; human) (UniProt G7PL88); assay: cell-based or functional assay
[2] = molecular target: hCTLA-4 extracellular domain (aa 1-161) fused to the trans-membrane and cytoplasmic domain of hCD300a (aa 181-299), on Jurkat/NFAT-Luc cells (human) (UniProt Q9UGN4); assay: cell-based or functional assay
[3] = molecular target: human CTLA-4 (amino acids M1-N223) on stably transfected VI-fibroblast cells (human) (UniProt P16410); assay: ECL cell binding, VI-fibroblast/hCTLA-4 cells
Chain of human CTLA-4 (amino acids M1-N223) on stably transfected VI-fibroblast cells (human) (P16410 36-223 limits assumed): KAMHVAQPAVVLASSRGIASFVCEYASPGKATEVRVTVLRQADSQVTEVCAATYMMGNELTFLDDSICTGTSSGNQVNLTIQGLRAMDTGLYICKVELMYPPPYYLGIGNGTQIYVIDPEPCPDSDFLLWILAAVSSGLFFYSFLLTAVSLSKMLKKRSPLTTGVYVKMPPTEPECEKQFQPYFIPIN

Chain of mf CTLA-4 extracellular domain (aa 1-161) fused to the trans-membrane and cytoplasmic domain of hCD300a (aa 181-299), on Jurkat/NFAT-Luc cells (Macaca fascicularis; human) (Q9UGN4 other isoform, or with tags, fused parts or gaps, form in doubt): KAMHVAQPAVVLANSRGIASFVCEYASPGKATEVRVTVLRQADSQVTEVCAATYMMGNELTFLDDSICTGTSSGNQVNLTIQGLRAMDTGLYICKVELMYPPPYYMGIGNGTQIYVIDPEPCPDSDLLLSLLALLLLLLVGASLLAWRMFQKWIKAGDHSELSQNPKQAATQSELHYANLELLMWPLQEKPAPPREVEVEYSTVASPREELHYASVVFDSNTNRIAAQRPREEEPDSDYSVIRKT
Chain of hCTLA-4 extracellular domain (aa 1-161) fused to the trans-membrane and cytoplasmic domain of hCD300a (aa 181-299), on Jurkat/NFAT-Luc cells (human) (Q9UGN4 other isoform, or with tags, fused parts or gaps limits assumed, form in doubt): as the sequence (Q9UGN4 other isoform, or with tags, fused parts or gaps, form in doubt) above, with N14S, M106L counted along it

## hIgG1 Isotype Control (antibody)
[1]
  Fold induction of IL-2 at 100 nM, APC HEK293/hCD20/hCD86 (isotype control): 1.1 fold
[2]
  Fold induction of IL-2 at 100 nM, APC HEK293/hCD20/hCD80 (isotype control): 0.8 fold
[3]
  ratio of RLU signal to parental VI-fibroblast at 0.4 nM Ab: 1

## mIgG2 Isotype Control (antibody)
[3]
  ratio of RLU signal to parental VI-fibroblast at 0.6 nM Ab: 1

## hIgG2 Isotype (antibody)
[1]
  Fold induction of IL-2 at 100 nM, APC HEK293/hCD20/hCD86 (isotype control): 1 fold
[2]
  Fold induction of IL-2 at 100 nM, APC HEK293/hCD20/hCD80 (isotype control): 1 fold

— patent publication US20210040232A1
